Measured values taken from US20240209089A1.
Several values for one entry are separate records, joined by “and”; a condition that tells them apart may be missing. Equal values may be shown once.

Key:
[1] = target: CD8α-Fc fusion protein (human); experiment: phage ELISA on coated CD8α-Fc, blank control
Fc protein = experiment: phage ELISA on coated Fc protein, blank control

Chain of CD8α-Fc fusion protein (human) (chain, as listed by the source): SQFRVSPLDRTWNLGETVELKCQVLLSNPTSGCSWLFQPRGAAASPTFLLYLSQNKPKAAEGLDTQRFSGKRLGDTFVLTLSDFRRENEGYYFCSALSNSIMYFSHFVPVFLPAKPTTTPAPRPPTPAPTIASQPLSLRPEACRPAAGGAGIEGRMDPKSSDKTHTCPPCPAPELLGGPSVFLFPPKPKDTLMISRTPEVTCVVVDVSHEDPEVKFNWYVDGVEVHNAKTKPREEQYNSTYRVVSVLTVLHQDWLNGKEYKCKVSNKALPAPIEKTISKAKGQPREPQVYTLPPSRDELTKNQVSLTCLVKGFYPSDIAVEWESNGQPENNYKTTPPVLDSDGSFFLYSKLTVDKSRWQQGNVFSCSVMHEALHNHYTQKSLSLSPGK

Substance: blank phage
- OD450 [1]: 0.067
- OD450 (Fc protein): 0.093 and 0.068
